The values below come from PMC5477490.

For this assay, the target named is 3E1 Fab, P01857;P01834. The settings on record: parent: est. 100; read off a plot.
For the substance “full-length, wild-type HA from A/Washington/05/2011 (H1N1) HA1:H18L”, the percent of parent amounted to 100%. For “full-length, wild-type HA from A/Washington/05/2011 (H1N1) HA2:D19A” the value was 100%. For “full-length, wild-type HA from A/Washington/05/2011 (H1N1) HA2:Y34M” the value was 100%.

As to “full-length, wild-type HA from A/Washington/05/2011 (H1N1) HA1:H38S”, the percent of parent amounted to 97%.
